Assay results as given in the DeepSol protein solubility set.

Test: soluble on expression in E. coli; label from the status in PepcDB or PDB records
For “MLRFRCILSTSRSIMSGVKEFDYLVIGGGSGGIASARRAREFGVSVGLIESGRLGGTCVNVGCVPKKVMYNCSLHAEFIRDHADYGFDVTLNKFDWKVIKKSRDEYIKRLNGLYESGLKGSSVEYIRGRATFAEDGTVEVNGAKYRGKNTLIAVGGKPTIPNIKGAEHGIDSDGFFDLEDLPSRTVVVGAGYIAVEIAGVLANLGSDTHLLIRYDKVLRTFDKMLSDELTADMDEETNPLHLHKNTQVTEVIKGDDGLLTIKTTTGVIEKVQTLIWAIGRDPLTKELNLERVGVKTDKSGHIIVDEYQNTSAPGILSVGDDTGKFLLTPVAIAAGRRLSHRLFNGETDNKLTYENIATVVFSHPLIGTVGLTEAEAVEKYGKDEVTLYKSRFNPMLFAVTKHKEKAAMKLVCVGKDEKVVGVHVFGVGSDEMLQGFAVAVTMGATKKQFDQTVAIHPTSAEELVTMRGGVKPE”, the “soluble on expression in E. coli” value was “not soluble”.
In the case of “MRSDVVARAMRLIADGTVDRDGVSGLAAQLGYTIRQLERLLQAVVGAGPLALARAQRMQTARVLIETTNLPFGDVAFAAGFSSIRQFNDTVRLACDGTPTALRARAAARFESATASAGTVSLRLPVRAPFAFEGVFGHLAATAVPGCEEVRDGAYRRTLRLPWGNGIVSLTPAPDHVRCLLVLDDFRDLMTATARCRRLLDLDADPEAIVEALGADPDLRAVVGKAPGQRIPRTVDEAEFAVRAVLAQQVSTKAASTHAGRLVAAYGRPVHDRHGALTHTFPSIEQLAEIDPGHLAVPKARQRTINALVASLADKSLVLDAGCDWQRARGQLLALPGVGPWTAEVIAMRGLGDPDAFPASDLGLRLAAKKLGLPAQRRALTVHSARWRPWRSYATQHLWTTLEHPVNQWPPQEKIALEHHHHHH”, the “soluble on expression in E. coli” value was “not soluble”.
For “MSLTYEKLYELRQTLRPTTKDGLYTDNEKNREILTVRWSGNTENPKNFSAVAIGINPSKANDERSDKTLTQLARFLDMYGFTNFKMLNIFSSYSTQQTGIRANTQTDFSKFKGCLEDADMIILAWGTDRGAYKDEKNRILEFLKAEKFMEKVFCISETGNSSDTRHPSRISYSYQLVQFEESAEGGSHHHHHH”, the “soluble on expression in E. coli” value was “soluble”.
With “MNKTYMLDTCICSFIMREQPEAVLKRLEQAVLRGQRIVVSAITYSEMRFGATGPKASPRHVELVDAFCARLDAILPWDRAAVDATTEIKVALRMAGTPIGPNDTAIAGHAIAAGAVLVTNNTREFERVPGLVLEDWVR” the “soluble on expression in E. coli” value was “not soluble”.
With “MADANATICYLNGLSLHTINEVEKILLALPKKGDRCEVQMSKPLNRCIGRSTGDVIASRSVQIRDEPKPLSLSPQKSEQEIKKSSKSKKLSEDCCLRSIKERVEIVETRNGSDAFGAKKLQYKVLTDQVRVSPIVSCNGVTLELDVEVTIPDRDEKKKLKLEIDRTLSVLILSIRNH” the “soluble on expression in E. coli” value was “not soluble”.
For “PPYTIVYFPVRGRAEAMRMLLADQGQSWKEEVVTIDTWMQGLLKPTCLYGQLPKFEDGDLTLYQSNAILRHLGRSLGLYGKNQREAAQMDMVNDGVEDLRGKYVTLIYTNYENGKNDYVKALPGHLKPFETLLSQNQGGKAFIVGDQISFADYNLLDLLLIHQVLAPGCLDNFPLLSAYVARLSARPKIKAFLSSPEHVNRPINGNGKQ”, the “soluble on expression in E. coli” value was “soluble”.
With “METKDLIVIGGGINGAGIAADAAGRGLSVLLLEAQDLACATSSASSKLIHGGLRYLEHYEFRLVSEALSERETLLKMAPHIIFPMRFRLPHQPHLRPAWMIRIGLFMYDNIGKRVSLPASKGLKFGADSVLKPELKQGFEYSDCWVDDARLVVLNAQEVAKRGGEVRTRTKVTRARREQGVWIVDAVDSLTGETFTWRAKGLVNATGPWVKEFFDDGLQLKSPYGIRLIKGSHIVVPRVHNQPQAYILQNKDHRIVFVIPWQDDYSIIGTTDVEYKGNPHDVKIDDNEVGYLLDVYNDHFKQQLTRDDIVWTYSGVRPLCDDESDSPQAITRDYTLSVDDDNGQAPLLSVFGGKLTTYRKLAEHALDKLHKYYPQAGKAWTKDAVLPGGDIAGTRDDYAAALRRRFNLPESLTRRYSRTYGSNSELILANVKGLSDLGEDFGHDLYEAELRYLVEKEWAVTLDDVIWRRTKLGMRFDDAQKQRISDWLVSYRQQQMAKAGLEHHHHHH” the “soluble on expression in E. coli” value was “soluble”.
For “MMRMKVKVVVNGKEYEVEVEEVMPGKFRVTLEGETYEVETSAGFVTSPKQVQVPTPAPTPAPAPTPTPAPAPSSKTVVSENVVSAPMPGKVLRVLVRVGDRVRVGQGLLVLEAMKMENEIPSPRDGVVKRILVKEGEAVDTGQPLIELG”, the “soluble on expression in E. coli” value was “soluble”.
In the case of “VDSKKRPGKDLDRIDRNILNELQKDGRISNVELSKRVGLSPTPCLERVRRLERQGFIQGYTALLNPHYLDASLLVFVEITLNRGAPDVFEQFNTAVQKLEEIQECHLVSGDFDYLLKTRVPDMSAYRKLLGETLLRLPGVNDTRTYVVMEEVKQSNRLVIKTR”, the “soluble on expression in E. coli” value was “soluble”.
In the case of “MLAARGFFKSTRISNRFFAKKSVKNLTNDDVDVLTNPSDEYVDSFMKYHGNGRAVFKREDLAQWRDSFPDYKFKVISLKGAPRVIATAHLCTFRPIDPSINKSIMFMGFGWIDPGFRSPGTAKLQNDMCRVEMDREDDNIVSQINQPAKNFWHKLSKRKEFLDLGHKAGDVGYKTFYSAHDVVLPENLDLSGITVKNAREVPKRDIINYDQTIHPYHREKYIISHMYDRDGFGKVAYDEEGNVIGIGQAVIYENRKDCNLGPIYAENTRVAQAMFAEILKDIKASEKTVVSFEVRSGQLNKDSFCWLTPFLTHKPTRSHVCNLVYTDCVPENIDFSKVYSPTHAQLFMV”, the “soluble on expression in E. coli” value was “not soluble”.
In the case of “MSLQCALYDAGRCRSCQWITQPIPEQLSAKTADLKNLLADFPVEEWCAPVSGPEQGFRNKAKMVVSGSVEKPLLGMLHRDGTPEDLCDCPLYPASFAPVFAALKPFIARAGLTPYNVARKRGELKYILLTESQSDGGMMLRFVLRSETKLAQLRKALPWLQAQLPQLKVITVNIQPVHMAIMEGETEIYLTEQQALVERFNDVPLWIRPQSFFQTNPAVASQLYATARDWVRQLPVKHMWDLFCGVGGFGLHCATPDMQLTGIEIALEAIACAKQSAAELGLTRLQFQALDSTQFATAQGEVPELVLVNPPRRGIGKPLCDYLSTMAPRFIIYSSCNAQTMAKDIRELPGYRIERVQLFDMFPHTAHYEVLTLLVKMEGHHHHHH”, the “soluble on expression in E. coli” value was “soluble”.
With “MTEVEKSRSGRIVKRKVFADFQQLDDDLKSITTEELRESASESKKLRLGPTRRSCRNIPTNYEELKAKTDAGIIPETVYYRASNNSMYIPSITADMLKNDGNDLTVQTRSDKYFKYNRVRQSTKIDYAEPEKVYDIIYAVRKRPILWDQRLICHRNSNLSRRAWDQLDLELGIDEEYPLARRKQIWKSKRDYFVSAVNAANLRKWIYADALEFYRPMINFRTTFCLRPTVAQPSQSVHDKLVLADKNIQCTPGDKKNVLTFLLKSLYDTGMSSPEMMAEHGLEILKIFKKNAESSNLKLN” the “soluble on expression in E. coli” value was “not soluble”.
For “MRIILLGAPGAGKGTQAQFIMEKYGIPQISTGDMLRAAVKAGSELGLKAKEIMDAGKLVTDELVIALVKERITQEDCRDGFLLDGFPRTIPQADAMKEAGIKVDYVLEFDVPDELIVERIVGRRVHAASGRVYHVKFNPPKVEDKDDVTGEELTIRKDDQEATVRKRLIEYHQQTAPLVSYYHKEADAGNTQYFKLDGTRNVAEVSAELATILG”, the “soluble on expression in E. coli” value was “not soluble”.
In the case of “MGSDKIHHHHHHMSTRIPTEESLDTQQKDFLKKLKDNHYVGQNIWIKGFPGSGKSVLLVYAIKYLLNNEATQNAKILLVVFTHSLIELCKAELAELNITNVKIVTMYEFLKTKRKYDYIFCDEVQDLTSRILIKMKDQTRYMLIVAGDSNQSIYSKDPQYQEAVVIPEKITQLIDSEDWGLLYVYRLTRSIITAIQKMIPSMNIFSAKRYMLKRDTQIRLCKAEFVDQEVEYIMREARKFVNRNQSCAILFPTKDKVLEFCDTVLQLEHKPVWEKWIDQYYEPYFKRLNDHLKENQVPIECVVNSYGSLLAAENDKRIVIMTYHGVKGLDFDNVFIPFANTDLYIPGDSNITQKLFMVAMSRSRNNLYITYTGMPLSYVSLFSSDSTICANISISNELHPNLSDDINIDF”, the “soluble on expression in E. coli” value was “not soluble”.
For “MAHHHHHHMDAFRSLTIGTKFSAARNEEAAKLFRNAGKDKGSHGFPDAIGADGAVTLENASDMGSSSLSVPPPSATLNLFGRPTRSHADANAHLGVSAGSDAAAAANTASENKALKAITFKKKRNIWRRNDLQVTGTDLPAPIEHFSDLVRPPLNVPRNVVNNLFARQHKVPTPIQMQAISSLIHHRDVLACAPTGSGKTIAFLVPLFALLKAPDASCGVRALIVTPTAELAQQIEREAFFLMKGQRWKFVQHGQTTKKKDIFIATPGRILSLLEQKLLDLSNVQYLVFDEGDRLWDSRTDFLTVIDRILTACTRTDKVVSLFTATLSEKVEAAARSVMGADPVRIIVHGRRSANTHVKQRLVFCGNELGKVVAMRNLVREGITPPVLVFVQSVERSKELYEEIRMEGLHMAIMHAKMTVEQREETVLQFRLGKIWVLVTTELLARGIDFKNVGTVINFDFPATVDSYIHRVGRTGRAGKEGTAITFFTEDDKERLPPIAKVMQDSGNAVEDWILGIKVDRSTRRRLERTTPQRTIVSTRKRMLVAQQRVQRQYRRLEAEKAAKQASKRSKGCGDCDRDDGDDSTDDA”, the “soluble on expression in E. coli” value was “not soluble”.
For “MPAPLKQLSWSVGCREIGRNCAISFIDALVNSLLAFRIAKRHTKLASECTWSQGRIDFMSENLNHTERQDRAITAPEFDALGRAPFISSLVKTLVHTDYDTSTGEVRSRRATGFVVGLTGEWGLGKSSVLNLLEHDLKQMEHVAVATLNPWLFKGRDEVVEAYFNALREALGFSSSEKARKLLVHLARYKASIEFVGATTAVVIDFVVGTGSATAIWKKWVLKVVRFLSKSRGLSANEERKNLEAKLAEAKIAIVMLIDELDRVEDEEVRVVAQLVKAVGDIKGISYLVAYDPSRVAQALGKGSTPEEKQKAGESYLEKIIQFPIPLRPLFMDEARDLLLQAMRNNDVTMPAESQSYQTEILNQLLRVIRTPREIKRLIGAFAVLEEIVRGEICPFDVLAYSWLVTKAPSLRERIADNIGQLVDDPSGEEMLARQRQRALATDKERTLTDILGSSAVSHLDILQLLFTRFNARREGSAEFFNGYRLALRRNLIRLLYLGNPPGDFSRRDIEVLWSLTNVDELEAELRRVKETDRLGPLLDRVGDFSASFPEAGDGIFWLALGRALVRENDWIRREEVERSLVDDACATLWRIARDGSEGSRRLRHIVHVLIEGGDLLIVPWLLRKHLFAHGLTNHGDRGRGDCIFEKDETIALRDKELPRYHDAVADGTALKKLPDTELIFCVLNSNYWDSKLKEDFTLQLDSIEAIVSFAALIMPPGIICDKSTLDLMLETDTVLKKANALLRQSGMPESDWLASAVRRLRTVLAGRDIHSADTLRDDFDQEELEHHHHHH”, the “soluble on expression in E. coli” value was “not soluble”.
For “MSLDIEQQFLNDLDNQLWRAADKLRSNLDAANYKHVVLGLIFLKYVSDAFEERQQELTELFQKDDDDNIYYLPREDYDSDEAYQQAIAEELEIGDYYTEKNVFWVPKTARWNKLRDVITLPTGSVIWQDEQGEDVKLRSVSWLIDNAFDDIEKANPKLKGILNRISQYQLDADKLIGLINEFSLTSFNNPEYNGEKLNLKSKDILGHVYEYFLGQFALAEGKQGGQYYTPKSIVTLIVEMLEPYKGRVYDPAMGSGGFFVSSDKFIEKHANVKHYNASEQKKQISVYGQESNPTTWKLAAMNMVIRGIDFNFGKKNADSFLDDQHPDLRADFVMTNPPFNMKDWWHEKLADDPRWTINTNGEKRILTPPTGNANFAWMLHMLYHLAPTGSMALLLANGSMSSNTNNEGEIRKTLVEQDLVECMVALPGQLFTNTQIPACIWFLTKDKNAKNGKRDRRGQVLFIDARKLGYMKDRVLRDFKDEDIQKLADTFHNWQQEWSEENNQAGFCFSADLALIRKNDFVLTPGRYVGAEAEEDEGHHHHHH”, the “soluble on expression in E. coli” value was “soluble”.
In the case of “MAKLDKKVYERELELLQIELVKLQEWVKQEKLKLVVIFEGRDAAGKGGVIKTITEKLNPRVCRVAALPAPTEKEKTQWYFQRYVAHLPAGGEIVLFDRSWYNRAGVEKVMGFCSDEEYQEFLRSCPEFERMLQRSGIILLKYWFSVSDEEQERRFIERINTPLKRWKFSPMDLESRQRWAAYSRAKDEMFAYTDTKHCPWWVVPSDDKKRARLNCISHLLSSVEYQEIEHAPITLPEINKQGYVRPPIEDQTFVPQRY”, the “soluble on expression in E. coli” value was “not soluble”.
